Biological target: malondialdehyde-modified LDL (MDA-LDL), human (human) (UniProt P04114)
Assay: ELISA, MDA-LDL immobilised on plate, antibody titrated (0.01-50 µg/ml), HRP anti-human IgG detection

Kd: 8 nM
Substance: orticumab (antibody)
